Laboratory results taken from patent US20080152587A1.

target: mouse uPAR on the surface of NCTC L929 cells (mouse) (UniProt P35456); assay: FACS, NCTC L929 mouse cells, secondary alone
Sequence (P35456 24-298): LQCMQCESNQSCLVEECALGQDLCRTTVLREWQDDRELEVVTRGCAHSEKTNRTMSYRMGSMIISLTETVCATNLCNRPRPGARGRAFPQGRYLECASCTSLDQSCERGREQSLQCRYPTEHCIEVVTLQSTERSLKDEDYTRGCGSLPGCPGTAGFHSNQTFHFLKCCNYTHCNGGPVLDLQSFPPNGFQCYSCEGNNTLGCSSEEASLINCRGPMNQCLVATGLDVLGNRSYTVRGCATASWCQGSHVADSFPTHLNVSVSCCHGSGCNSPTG

Row | Substance | X Geo mean
1 | secondary antibody alone for mouse antibodies | 3.22
2 | secondary antibody alone for rat antibodies | 13.1
3 | secondary antibody alone, Cy5-labeled goat anti-human IgG Fc | 7.63
